Experimental data taken from patent US20250368975, “COMPOSITIONS, METHODS AND SYSTEMS FOR HIGH-FIDELITY CAS13A VARIANTS WITH IMPROVED SPECIFICITY” (University of Rochester, published 2025).

Target: T1, LbuCas13a R377A (Leptotrichia buccalis, UniProt C7NBY4 SEQ:1-1159)
T1 chain: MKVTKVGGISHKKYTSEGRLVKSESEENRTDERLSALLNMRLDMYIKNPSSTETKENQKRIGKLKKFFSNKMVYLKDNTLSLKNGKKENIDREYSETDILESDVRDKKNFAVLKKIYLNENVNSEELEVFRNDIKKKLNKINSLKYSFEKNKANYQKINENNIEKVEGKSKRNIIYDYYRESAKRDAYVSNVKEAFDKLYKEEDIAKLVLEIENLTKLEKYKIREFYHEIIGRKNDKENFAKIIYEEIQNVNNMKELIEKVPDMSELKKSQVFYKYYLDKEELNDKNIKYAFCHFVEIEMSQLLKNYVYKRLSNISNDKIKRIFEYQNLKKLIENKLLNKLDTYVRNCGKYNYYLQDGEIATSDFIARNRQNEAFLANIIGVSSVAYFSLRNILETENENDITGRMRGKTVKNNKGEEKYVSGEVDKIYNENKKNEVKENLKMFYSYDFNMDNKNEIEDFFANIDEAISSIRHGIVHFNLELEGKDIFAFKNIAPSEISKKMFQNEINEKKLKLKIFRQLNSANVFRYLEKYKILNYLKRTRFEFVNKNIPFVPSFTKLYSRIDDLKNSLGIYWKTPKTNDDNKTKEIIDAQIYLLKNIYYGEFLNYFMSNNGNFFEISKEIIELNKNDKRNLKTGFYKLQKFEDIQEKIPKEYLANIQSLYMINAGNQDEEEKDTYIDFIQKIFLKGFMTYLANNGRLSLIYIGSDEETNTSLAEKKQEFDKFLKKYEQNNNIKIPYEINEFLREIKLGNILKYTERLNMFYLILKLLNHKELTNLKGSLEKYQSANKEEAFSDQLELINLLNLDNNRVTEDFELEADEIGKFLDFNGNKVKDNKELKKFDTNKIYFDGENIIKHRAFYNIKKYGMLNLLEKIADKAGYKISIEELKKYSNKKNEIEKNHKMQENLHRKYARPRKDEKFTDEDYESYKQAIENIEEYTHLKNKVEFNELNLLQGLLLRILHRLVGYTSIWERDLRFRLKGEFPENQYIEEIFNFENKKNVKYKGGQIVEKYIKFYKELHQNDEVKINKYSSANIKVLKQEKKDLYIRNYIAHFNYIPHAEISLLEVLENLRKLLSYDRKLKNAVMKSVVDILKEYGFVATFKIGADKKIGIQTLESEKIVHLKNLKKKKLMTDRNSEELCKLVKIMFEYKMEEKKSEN
Assay: cleavage_in_vitro; 10 nM; decreased about 50% vs WT; inactive at 100 pM
Settings: tags: His6-MBP-TEV (cleaved); hairpin in direct repeat

B1: del crRNA 20 nt spacer ; perfect match target RNA (ssRNA ; ssRNA)
RNA 1: GGCCACCCCAAAAAUGAAGGGGACUAAAACACAAAUCUAUCUGAAUAAAC
RNA 2: GGGAAACCAAGAAGAAGAGUUUAUUCAGAUAGAUUUGUCACAGCAGAAGCCCACAC
In the case of B1, the activity is reported as ~50 % of WT.
